# Laboratory results reported in paper PMC12216690, “MORC2 is a phosphorylation-dependent DNA compaction machine” (Nature Communications, 2024).
# Columns and labels:
# [1] = target: the molecule itself; test: SEC-MALS; XBridge Protein BEH SEC column; 50 mM HEPES pH 8.0, 300 mM NaCl, 1 mM TCEP; 20 µl of protein at 1 mg/ml injected; no nucleotide
# [2] = target: the molecule itself; test: cryo-EM structure; 2 µM protein with AMP-PNP, with or without three-fold molar excess of 60 bp DNA; C2 symmetry imposed
# [3] = target: the molecule itself; test: atomic force microscopy; dry AFM, 10 nM MORC2 in 40 mM Tris pH 7.5, 50 mM NaCl, 1 mM MgCl2, 0.5 mM TCEP, with 1 mM ATP, with 1 mM AMP-PNP or without ATP, on poly-O-lysine treated mica; particle volumes fitted with two gaussians
Protein,binding result [2],also measured
"full-length MORC2 (MORC2^WT) (natural protein, human, UniProt Q9Y6X9 1-1032, looked up, came phosphorylated from insect cells at multiple sites; top 6 hits S725, S730, S739, S743, S777, S779, MORC2, human, UniProt Q9Y6X9, full length (1-1032); No cleavage of the tag is described; the SPR and single-molecule methods speak of StrepII-tagged MORC2; also called MORC2 WT (1-1032); MORC2^Apo; source: Sf9 insect cells, purified (Strep-Tactin, HiTrap Q, Superose 6 SEC)) MAFTNYSSLNRAQLTFEYLHTNSTTHEFLFGALAELVDNARDADATRIDIYAERREDLRGGFMLCFLDDGAGMDPSDAASVIQFGKSAKRTPESTQIGQYGNGLKSGSMRIGKDFILFTKKEDTMTCLFLSRTFHEEEGIDEVIVPLPTWNARTREPVTDNVEKFAIETELIYKYSPFRTEEEVMTQFMKIPGDSGTLVIIFNLKLMDNGEPELDIISNPRDIQMAETSPEGTKPERRSFRAYAAVLYIDPRMRIFIHGHKVQTKRLSCCLYKPRMYKYTSSRFKTRAEQEVKKAEHVARIAEEKAREAESKARTLEVRLGGDLTRDSRVMLRQVQNRAITLRREADVKKRIKEAKQRALKEPKELNFVFGVNIEHRDLDGMFIYNCSRLIKMYEKVGPQLEGGMACGGVVGVVDVPYLVLEPTHNKQDFADAKEYRHLLRAMGEHLAQYWKDIAIAQRGIIKFWDEFGYLSANWNQPPSSELRYKRRRAMEIPTTIQCDLCLKWRTLPFQLSSVEKDYPDTWVCSMNPDPEQDRCEASEQKQKVPLGTFRKDMKTQEEKQKQLTEKIRQQQEKLEALQKTTPIRSQADLKKLPLEVTTRPSTEEPVRRPQRPRSPPLPAVIRNAPSRPPSLPTPRPASQPRKAPVISSTPKLPALAAREEASTSRLLQPPEAPRKPANTLVKTASRPAPLVQQLSPSLLPNSKSPREVPSPKVIKTPVVKKTESPIKLSPATPSRKRSVAVSDEEEVEEEAERRKERCKRGRFVVKEEKKDSNELSDSAGEEDSADLKRAQKDKGLHVEVRVNREWYTGRVTAVEVGKHVVRWKVKFDYVPTDTTPRDRWVEKGSEDVRLMKPPSPEHQSLDTQQEGGEEEVGPVAQQAIAVAEPSTSECLRIEPDTTALSTNHETIDLLVQILRNCLRYFLPPSFPISKKQLSAMNSDELISFPLKEYFKQYEVGLQNLCNSYQSRADSRAKASEESLRTSERKLRETEEKLQKLRTNIVALLQKVQEDIDINTDDELDAYIEDLITKGD",–,stoichiometry N [1]: 2
"MORC2 phosphodead (MORC2^PD) mutant (natural protein, human, UniProt Q9Y6X9 1-1032, looked up, MORC2, human, UniProt Q9Y6X9, full length with six serine to alanine mutations in the CTD; Only the ATPase domain is modelled in the cryo-EM maps; also called MORC2^PD-DNA; source: Sf9 insect cells, purified (Strep-Tactin, HiTrap Q, Superose 6 SEC)) MAFTNYSSLNRAQLTFEYLHTNSTTHEFLFGALAELVDNARDADATRIDIYAERREDLRGGFMLCFLDDGAGMDPSDAASVIQFGKSAKRTPESTQIGQYGNGLKSGSMRIGKDFILFTKKEDTMTCLFLSRTFHEEEGIDEVIVPLPTWNARTREPVTDNVEKFAIETELIYKYSPFRTEEEVMTQFMKIPGDSGTLVIIFNLKLMDNGEPELDIISNPRDIQMAETSPEGTKPERRSFRAYAAVLYIDPRMRIFIHGHKVQTKRLSCCLYKPRMYKYTSSRFKTRAEQEVKKAEHVARIAEEKAREAESKARTLEVRLGGDLTRDSRVMLRQVQNRAITLRREADVKKRIKEAKQRALKEPKELNFVFGVNIEHRDLDGMFIYNCSRLIKMYEKVGPQLEGGMACGGVVGVVDVPYLVLEPTHNKQDFADAKEYRHLLRAMGEHLAQYWKDIAIAQRGIIKFWDEFGYLSANWNQPPSSELRYKRRRAMEIPTTIQCDLCLKWRTLPFQLSSVEKDYPDTWVCSMNPDPEQDRCEASEQKQKVPLGTFRKDMKTQEEKQKQLTEKIRQQQEKLEALQKTTPIRSQADLKKLPLEVTTRPSTEEPVRRPQRPRSPPLPAVIRNAPSRPPSLPTPRPASQPRKAPVISSTPKLPALAAREEASTSRLLQPPEAPRKPANTLVKTASRPAPLVQQLSPSLLPNSKSPREVPSPKVIKTPVVKKTEAPIKLAPATPSRKRAVAVADEEEVEEEAERRKERCKRGRFVVKEEKKDSNELADAAGEEDSADLKRAQKDKGLHVEVRVNREWYTGRVTAVEVGKHVVRWKVKFDYVPTDTTPRDRWVEKGSEDVRLMKPPSPEHQSLDTQQEGGEEEVGPVAQQAIAVAEPSTSECLRIEPDTTALSTNHETIDLLVQILRNCLRYFLPPSFPISKKQLSAMNSDELISFPLKEYFKQYEVGLQNLCNSYQSRADSRAKASEESLRTSERKLRETEEKLQKLRTNIVALLQKVQEDIDINTDDELDAYIEDLITKGD",binds,–
"full-length MORC2 ATPase-dead mutant (MORC2^S87A) (natural protein, human, UniProt Q9Y6X9 1-1032, looked up, MORC2, human, UniProt Q9Y6X9, full length with S87A; Only the ATPase domain is modelled in the cryo-EM map; also called S87A mutant; source: Sf9 insect cells, purified (Strep-Tactin, HiTrap Q, Superose 6 SEC)) MAFTNYSSLNRAQLTFEYLHTNSTTHEFLFGALAELVDNARDADATRIDIYAERREDLRGGFMLCFLDDGAGMDPSDAASVIQFGKAAKRTPESTQIGQYGNGLKSGSMRIGKDFILFTKKEDTMTCLFLSRTFHEEEGIDEVIVPLPTWNARTREPVTDNVEKFAIETELIYKYSPFRTEEEVMTQFMKIPGDSGTLVIIFNLKLMDNGEPELDIISNPRDIQMAETSPEGTKPERRSFRAYAAVLYIDPRMRIFIHGHKVQTKRLSCCLYKPRMYKYTSSRFKTRAEQEVKKAEHVARIAEEKAREAESKARTLEVRLGGDLTRDSRVMLRQVQNRAITLRREADVKKRIKEAKQRALKEPKELNFVFGVNIEHRDLDGMFIYNCSRLIKMYEKVGPQLEGGMACGGVVGVVDVPYLVLEPTHNKQDFADAKEYRHLLRAMGEHLAQYWKDIAIAQRGIIKFWDEFGYLSANWNQPPSSELRYKRRRAMEIPTTIQCDLCLKWRTLPFQLSSVEKDYPDTWVCSMNPDPEQDRCEASEQKQKVPLGTFRKDMKTQEEKQKQLTEKIRQQQEKLEALQKTTPIRSQADLKKLPLEVTTRPSTEEPVRRPQRPRSPPLPAVIRNAPSRPPSLPTPRPASQPRKAPVISSTPKLPALAAREEASTSRLLQPPEAPRKPANTLVKTASRPAPLVQQLSPSLLPNSKSPREVPSPKVIKTPVVKKTESPIKLSPATPSRKRSVAVSDEEEVEEEAERRKERCKRGRFVVKEEKKDSNELSDSAGEEDSADLKRAQKDKGLHVEVRVNREWYTGRVTAVEVGKHVVRWKVKFDYVPTDTTPRDRWVEKGSEDVRLMKPPSPEHQSLDTQQEGGEEEVGPVAQQAIAVAEPSTSECLRIEPDTTALSTNHETIDLLVQILRNCLRYFLPPSFPISKKQLSAMNSDELISFPLKEYFKQYEVGLQNLCNSYQSRADSRAKASEESLRTSERKLRETEEKLQKLRTNIVALLQKVQEDIDINTDDELDAYIEDLITKGD",binds,–
"ATP-binding-deficient mutant MORC2 N39A (MORC2^N39A) (natural protein, human, UniProt Q9Y6X9 1-1032, looked up, MORC2, human, UniProt Q9Y6X9, full length with N39A; also called N39A mutant; source: Sf9 insect cells, purified (Strep-Tactin, HiTrap Q, Superose 6 SEC)) MAFTNYSSLNRAQLTFEYLHTNSTTHEFLFGALAELVDAARDADATRIDIYAERREDLRGGFMLCFLDDGAGMDPSDAASVIQFGKSAKRTPESTQIGQYGNGLKSGSMRIGKDFILFTKKEDTMTCLFLSRTFHEEEGIDEVIVPLPTWNARTREPVTDNVEKFAIETELIYKYSPFRTEEEVMTQFMKIPGDSGTLVIIFNLKLMDNGEPELDIISNPRDIQMAETSPEGTKPERRSFRAYAAVLYIDPRMRIFIHGHKVQTKRLSCCLYKPRMYKYTSSRFKTRAEQEVKKAEHVARIAEEKAREAESKARTLEVRLGGDLTRDSRVMLRQVQNRAITLRREADVKKRIKEAKQRALKEPKELNFVFGVNIEHRDLDGMFIYNCSRLIKMYEKVGPQLEGGMACGGVVGVVDVPYLVLEPTHNKQDFADAKEYRHLLRAMGEHLAQYWKDIAIAQRGIIKFWDEFGYLSANWNQPPSSELRYKRRRAMEIPTTIQCDLCLKWRTLPFQLSSVEKDYPDTWVCSMNPDPEQDRCEASEQKQKVPLGTFRKDMKTQEEKQKQLTEKIRQQQEKLEALQKTTPIRSQADLKKLPLEVTTRPSTEEPVRRPQRPRSPPLPAVIRNAPSRPPSLPTPRPASQPRKAPVISSTPKLPALAAREEASTSRLLQPPEAPRKPANTLVKTASRPAPLVQQLSPSLLPNSKSPREVPSPKVIKTPVVKKTESPIKLSPATPSRKRSVAVSDEEEVEEEAERRKERCKRGRFVVKEEKKDSNELSDSAGEEDSADLKRAQKDKGLHVEVRVNREWYTGRVTAVEVGKHVVRWKVKFDYVPTDTTPRDRWVEKGSEDVRLMKPPSPEHQSLDTQQEGGEEEVGPVAQQAIAVAEPSTSECLRIEPDTTALSTNHETIDLLVQILRNCLRYFLPPSFPISKKQLSAMNSDELISFPLKEYFKQYEVGLQNLCNSYQSRADSRAKASEESLRTSERKLRETEEKLQKLRTNIVALLQKVQEDIDINTDDELDAYIEDLITKGD",–,binding result [3]: binds
